Measurements: the DeepSol protein solubility set

assay: soluble on expression in E. coli; label from the status in PepcDB or PDB records

**Q.** With “MSLSNNKQSSTNDGKISIVTSTNVYADIAKNIVGKYGSAKAIIKNSATDPHDFEPTTQDAKELSSTNIIVANGLGYDSWMNKLASSVDKKPVLVGEELMKLKKGANPHIWYSLSMPTEYVDYLVKRLSKIDSKHKAYFEANGKKYLAKINQVKALAKNSKKTDKMVFVSEPVFDYALAEAGYKIGDKDFEKAVENNTDPSPKTINRMTNDIKNKKIAFFVNNTQSSSSTVKTFVKLAKQNNIPVLNVRETIPNHTTYLNWMKENYQNLANISKEGHHHHHH” as the sequence, how does the “soluble on expression in E. coli” value read?
**A.** not soluble

**Q.** With “MNGTGNTILVTGGTSGIGLGLALRLHKAGNKVIIAGRRKALLDKIVSEHPGIESVVLDVTDPHSIQHSSEALAISHPNLNVLINNAGIMHWEDLTDAKYLSTAENIVTTNLLGTIRMVYAFTPNLLKQPSATIVNVSSALAFVPLPATPTYSATKAAVHSFTQSLRVQLADSPVEVIELAPPGVRTTLLGQENDEHAMPLEAFLDEIFKLLDISPTPQELVVERAKPLRFAEANGSHGEVLKMLAGYKPPAE” as the sequence, how does the “soluble on expression in E. coli” value read?
**A.** not soluble

**Q.** For “SNGRADFREPNAQVSRPIPDIGGGYIPTEEEWRLFAECHEECFWFRSVPLAATSMLITQGLISKGILSSHPKYGSIPKLIFACIVGYFAGKLSYVKTCQEKFKKLENSPLGEALRSGELRRSLPPGHYTQKPKYDSNVSGQSSFGTSPAADNIEKETLPRYEPIPFSASMNESTPTGITDHIAQGPDPNLEDSPKRKSVTYEELRNKNRESYGVTLSHKTDPSVRPMQERGPQKEVKVNKYGDTWDE”, which “soluble on expression in E. coli” value is on record?
**A.** soluble

**Q.** For “MQKPSIPKGMRDFSPVEMSRRNYIFDTIREVYELFGFNQIETPTMEMLSTLMGKYGEEGDRLLFKVLNSGDVLADFCAEELAEKNSLRFAAKACEKGLRYDLTVPFARYVVMHRNEINFPFKRYQIQPVWRADRPQKGRYREFYQCDGDVIGSDSLMNEVELIQIISEVFRRLGIRTRILLNNRKILSGIAEVVDEADRLTDITVAIDKLDKIGLDKVNDELRTKGFGEEAIERLRPFIEMKGDNREKLDRLKSALASSETGLKGIEELTYILDKVERVQLHSELMVDISLARGLSYYTGAILEVKALDAEMGSITGGGRYDNLTGIFGLEGMSGVGISFGADRIYDVMMQLDLFPAEKLTGTQLLFVNFSEEDADSLLPLIQKLREQGLRTELYPEPAKIKKQMSYANAANIPYVALVGENERAAGQVNLKNMLTGEQQMLPADAATIVAAIV”, which “soluble on expression in E. coli” value is on record?
**A.** not soluble

**Q.** For “MGSDKIHHHHHHMDLSNLNEKDMALGCKYCIKGEKLVLYITGLCEESCYYCPLSEKRKKKDVIFANEKQINSIEEAVEEARLCGSKGVGITGGNPLLRIERTVEYLKALKEEFGSDFHAHLYTTPKFVSEKNLKLLKDAGLDEIRLHSSKLFNDFENFDKLDFLEKLKLCKNYIKDVGVEIPGIPNFEKEILDLAFEIDKIGVKFLNINELEYSETNYQSLIDRGFSEKDDTTSRISGSFETAKYIIDNFKGKLIIHFCPSSLKDSVQMKNRLINRARNVAKPYEEITEEGLLLKGTINFKDLKDVSEVLEVLKENDVEFELLNDRLLLNPEILEDLIDHLKENNFDFKFSAYISEYYPTSDKLEVERIPLVTKKPNLKLKKK”, which “soluble on expression in E. coli” value is on record?
**A.** not soluble

**Q.** With “MSLKYVNKVIVILGASFAGMTCAQKLRQLNPNWDIVLIDKEIHPDYVPNGLNWYYRHEISGLNQAMWQTEEEQRLQNIRCLFGLKVEKINKEDRELMLSDGSSVYYDQLICAMGSQAESTYIDGADAQGVLTTKTYATSQNAKQVLDKSHKVAVVGAGIIGLDIAYSLHESGKAVTLLEAQERPDFRHTDPDMSLPLLDAMAESKLHFFQNQKVEKITVTREEKLCLRTLTGDTFTVDAVILAVNFRPDSRLLTGLVDLSVDNSVVVNDYFQTSDPNIYAIGDLIWSYFKGLNSAYYMPLINQAIRSAQMLAYHLSGHAVPKLKITRATGSKHFGYYRANIGLTELEAGFYEDTVSVTYFPKEQYDLRIKLIANQKTGHLLGAQLISKENCLATANQLVQAISCDMTDFDLAFQDFIYTARESEMAYMLHQAAINLYEKRIGEGHHHHHH” as the sequence, how does the “soluble on expression in E. coli” value read?
**A.** soluble

**Q.** Which “soluble on expression in E. coli” value does the source give for “SLGNGMNKILPGLYIGNFKDARDAEQLSKNKVTHILSVHDSARPMLEGVKYLCIPAADSPSQNLTRHFKESIKFIHECRLRGESCLVHCLAGVSRSVTLVIAYIMTVTDFGWEDALHTVRAGRSCANPNVGFQRQLQEFEKHEVHQ” here?
**A.** not soluble

**Q.** With “MGSDKIHHHHHHMNKDFTFTIKSSCFDENYNPSENTRITTNFANLARGKSRQENLRNTLVMMDNRFNTLAYWDNPKANRYSVELEIISVEIDIEGNGDTFPAIEILKTNIVDKKTNERIEGIVGNNFSSYVRDYDFSVLLPEHNKSHPGFSTPDNFGDLHGKLFKCFTNSKFYKDNFNKQPVICLSVSSKNTYHRTGNQHPVLGIEYQQNEPSLTDHYFERMGLQARYFMPANSVAPLAFYFSGDLLNDYTNLELISTISTMETFQKIYRPEIYNANSAAGQYYQPNLNNQDHSLTKIVYDRVERSQLAIEQGKFTEEHFIKPYKNILEQWSAHYAR” as the sequence, how does the “soluble on expression in E. coli” value read?
**A.** not soluble

**Q.** For “MNRESFAAGERLVSPAYVRQGCEARRSHEHLIRLLLEKGKCPENGWDESTLELFLHELAIMDSNNFLGNCGVGEREGRVASALVARRHYRFIHGIGRSGDISAVQPKAAGSSLLNKITNSLVLDIIKLAGVHTVANCFVVPMATGMSLTLCFLTLRHKRPKAKYIIWPRIDQKSCFKSMITAGFEPVVIENVLEGDELRTDLKAVEAKVQELGPDCILCIHSTTSCFAPRVPDRLEELAVICANYDIPHIVNNAYGVQSSKCMHLIQQGARVGRIDAFVQSLDKNFMVPVGGAIIAGFNDSFIQEISKMYPGRASASPSLDVLITLLSLGSNGYKKLLKERKEMFSYLSNQIKKLSEAYNERLLHTPHNPISLAMTLKTLDEHRDKAVTQLGSMLFTRQVSGARVVPLGSMQTVSGYTFRGFMSHTNNYPCAYLNAASAIGMKMQDVDLFIKRLDRCLKAVRKERSKESDDNYDKTEDVDIEEMALKLDNVLLDTYQDASS”, which “soluble on expression in E. coli” value is on record?
**A.** soluble

**Q.** With “MGSDKIHHHHHHMNQHTLLPKKTERLQYFGSVSPIKGEKPVEKEKMKDLQNIRKDYFFDIQHVGVANVSHPVTITSAMMPAEQTTAANFTMTCNLPRNQKGINMSRLTELLQVYHQNGWILSFSSLQQFTKELAENMDTSSATVEVRFPWFFERKSPKLEKAGLMHADIFMSVTYRKDQPFKQRAGISAKVTTLCPCSKEISEYSAHNQRGTVKHLGRIFTRAASLPSDVKADLPHAAESNASARLHPVLKRPDEKAVTETAYENPRFVEDLARLIAADLFELEWVSAFEIECRNEESIHLHRCLCEVCFSKEVDKI” as the sequence, how does the “soluble on expression in E. coli” value read?
**A.** not soluble

**Q.** For “MAHHHHHHVDDDDKMVPYTVRFTTTARRDLHKLPPRILAAVVEFAFGDLSREPLRVGKPLRRELAGTFSARRGTYRLLYRIDDEHTTVVILRVDHRADIYRR”, which “soluble on expression in E. coli” value is on record?
**A.** soluble

**Q.** For “MGSDKIHHHHHHMKSAPDWIAHPDTPYLLIDEAKLKSNINYLKQRVESLGSHLRPHLKTLRTLEAAGYLLDSKSAPATVSTLAEAEAYAKAGYTDLLYAVGIAPAKLKRVAALRQQGINLHILLDNITQAQAVVDYAAEFGQDFSVFIEIDSDDHRGGIKPSDSKLLTIAKTLGEHFTGLMTHAGGSYACNTEQGLKNFAKQECDAVRIARNNLETAGIHCAITSVGSTPTAHFGEDFSDISEVRAGVYTTFDLVMKNIGVCDFSHIAMSVVTTVIGHNKEKNWLLTDSGWMALSRDSGTAGQNRDFGYGQVCKIDGSVLDGLCVNSTSQEHGVIELSDAYQLEDFPVGHQLRIMPNHACATAAMHPVYHVLMSDGSHNTWQRITGW”, which “soluble on expression in E. coli” value is on record?
**A.** not soluble

**Q.** With “MALNDFHVSEPYTLGIELEMQVINPPGYDLSQDSSTLIDAVKPQLTAGEIKHDITESMLEMATGVCRDIDQAAAQLSAMQHVILQAASEHHLGICGGGTHPFQKWQRQEVCDNERYQRTLENFGYLIQQATVFGQHVHVGCANGDDAIYLLHGLSHFVPHFIALSAASPYMQGADTRFACARLNIFSAFPDNGPMPWVSNWQEFAGLFRRLSYTTMIDSIKDLHWDIRPSPAFGTVEVRVMDTPLTLDHAINMAGLIQATAHWLLTERPFKPQEQDYLLYKFNRFQACRYGLEGVLTDAYTGDRRRLADDTLRLLDNVTPSARKLGADSAIDALRLQVKKGGNEAQYMREFIADGGSLIGLVQKHCEIWAGQ” as the sequence, how does the “soluble on expression in E. coli” value read?
**A.** soluble

**Q.** For “GIDPFTMVALSLKISIGNVVKTMQFEPSTMVYDACRMIRERIPEALAGPPNDFGLFLSDDDPKKGIWLEAGKALDYYMLRNGDTMEYRKKQRPLKIRMLDGTVKTIMVDDSKTVTDMLMTICARIGITNHDEYSLVRELMEEKKDELNWLDHGRTLREQGVEEHETLLLRRKFFYSDQ”, which “soluble on expression in E. coli” value is on record?
**A.** soluble

**Q.** Which “soluble on expression in E. coli” value does the source give for “MNGKRPAEPGPARVGKKGKKEVMAEFSDAVTEETLKKQVAEAWSRRTPFSHEVIVMDMDPFLHCVIPNFIQSQDFLEGLQKELMNLDFHEKYNDLYKFQQSDDLKKRREPHISTLRKILFEDFRSWLSDISKIDLESTIDMSCAKYEFTDALLCHDDELEGRRIAFILYLVPPWDRSMGGTLDLYSIDEHFQPKQIVKSLIPSWNKLVFFEVSPVSFHQVSEVLSEEKSRLSISGWFHGPSLTRPPNYFEPPIPRSPHIPQDHEILYDWINPTYLDMDYQVQIQEEFEESSEILLKEFLKPEKFTKVCEALEHGHVEWSSRGPPNKRFYEKAEESKLPEILKECMKLFRSEALFLLLSNFTGLKLHFLAPSEEDEMNDKKEAETTDITEEGTSHSPPEPENNQMAISNNSQQSNEQTDPEPEENETKKESSVPMCQGELRHWKTGHYTLIHDHSKAEFALDLILYCGCEGWEPEYGGFTSYIAKGEDEELLTVNPESNSLALVYRDRETLKFVKHINHRSLEQKKTFPNRTGFWDFSFIYYE” here?
**A.** not soluble

**Q.** Which “soluble on expression in E. coli” value does the source give for “MSNEKFNNVPKPAGNGPHTPEDHAIKGELTFEDKVVQKIIGLALENVDGLLTVDGGFFSNIAEKLVNTDNVTAGIDTEVGKKQVAVDMDIVVEYGKDIQDIYEKMKELISREVKKMTHLDVIEVNVNVVDIKSKEEYEEDSETVQDKVTGAAKSTGEFASEQTEKAKKAVNKGTEQVKENMEPRVELEHHHHHH” here?
**A.** soluble

**Q.** With “MSAATATRSQLALQSYLDALLQEATFEDLEPLVETPPAPAPAPLKPVALAVAEVATPAPALETLPVDHGFDEFEAAVLEEQVRDARLVPPAPAALLDEPTTLRELPVEPRPHEVIELRVPSAPASVGEPPLLDLPLLDDGRPAWAAEPFECLLFD” as the sequence, how does the “soluble on expression in E. coli” value read?
**A.** soluble

**Q.** For “MAHHHHHHMGTLEAQTQGPGSMVTAEAIDQRTFRRVLGQFCTGVTIITTVHEGNPVGFACQSFAALSLDPPLVLFCPTKVSRSWKAIEASGRFCVNILHEKQQHVSARFGSREPDKFAGIDWRPSDLGSPIIDGSLAHIDCTVHDVHDGGDHFVVFGKVHGLSEVPERKPRPLLFYRGEYTGIEPEKNTPAQWRDDLEAFLTATTADTWL”, which “soluble on expression in E. coli” value is on record?
**A.** soluble

**Q.** With “RTVAQNASETTVSYDTDTAVLSEADVLRIALSENATVKVADMDVRKQEYARRAARADLFPKVDLNGVYSHTLKKQVLYIDMPGFSSSEGIEMGRTHNTQGGVNVSMPLVSAQLWKSIAMTGEQLDLALEKARSSRIDLVAEVKKAYLSVLLAEDSYGVFKRSYDNALANYKNISDKFDRGLVAEYDKIRANVQVRNIEPNLLQAQNSVALALWQLKVLMSMEVETPIRLSGSLSDYKEQVYTGYFAADTLISNNSSLRQLDIQRRLAVSADKLNKYSFLPTLNLGGQYTYSLNSNDIKFWGEGQR” as the sequence, how does the “soluble on expression in E. coli” value read?
**A.** not soluble

**Q.** With “MGSDKIHHHHHHVDRGCQWRGDDSLRGQRHERRGQLRLMGAAEYASQVRTLPKLGLGVGLRNEHFNHILSERPNVDWFEAISENFMDSGGRPGWVIRQIAEHYPIVLHGVSLSIGSADPLNEGYLARLKLLADDVQAKWVSDHLCWTGVLSINSHDLLPLPLNEETLGHVTSRVHHVQEVLGRPLILENPSTYASFQTSDIPEPEFLRALSDATGCGLLLDVNNVYVSCFNDGTDPLEYLEKIPFEKVIQMHLAGHTNCGEFLLDTHDQPVTRGVWELFRLAWQRTGGAATLLEWDGDVPAFEDLHAEVLKAREFMAGEVEALHLYQGAAAPGRARVSNPVDHIVSPVRGHSRLDA” as the sequence, how does the “soluble on expression in E. coli” value read?
**A.** not soluble
